From IntAct's records for PubMed 28441531 come the findings set out here.

B1: Myelin regulatory factor homolog 1 (Caenorhabditis elegans), G5EFI7 (parent)
chain: MSSSDLLKGEFDGLNSEHFNMMQYLTQDTDEDDGSMVSPTSSADSMHQNLGVQQQQQQMLQAQQRQNQNGIFQPRRFPESPAMTDPCGNVSSSSSSSHHSDPMFSPNEFNGYAGANDNGNQTMNNIQSQQLSQQQHQQTRGGNLMMPQQSSIHAQMQNMNAPQFWSQPGTAAVNQPTNTLAQLNLFNIIRGGADSGMPSPVLEMPRKRSRLDTPCETPRIAPSFAGIDGFPDENYSQQQAIRFSKFQEEQWSPLYDINAQPLQQLQVHVVADKGFNYNSNDNCFVNQKKNHFQISVNVEASDTMPPKYVNFNNRLVPIRDFKLSFCGVKAEMPSSEITIRQSRADRKPHTHTPVLFEIQERRMTKVCVPRLHFSETTLNNQRKQKNRPNPEQKFFLLVVRLFASIDESEHGVLIQSYASEKVIVRATNPGSFEPQDTDIGWQRNGGALYTQGAVSVGTEHQVESAKLTVAGDIYMSGRIINPSDIRLKEAITERETAEAIENLLKLRVVDYRYKPEVADIWGLDEQQRHRTGLIAQELQAVLPDAVRDIGDYLTIDEGRVFYETVMATQQLCRMTGDLDSKIDEKVAEISRRLNEYAVRKKLASSMASNLNGDNKSLSYSRCSLTSTATNATSQPKRSRKHRAIKQAQSCGSRLSQGTVVTLVSIMAACLLAMSALYVLDWHNRNYGYHQHFETNTPSTKGELANLVISPANFMPSFQPDAPILLEKCFNPSCKTYCCTDTPPVVEDSRAIATHGLDNGDEVYPESPSNRTNGIARAPNLEHMAFETGVEIRIPALNVTLDQRYCVERSCNKRKGIFNVFVPVSRYMPDVALEIEIKAPISKVVSNCGAFPSTEFNHKVCPLSRTQQSESPVPTSTRLFDNIFELSMGSFIQSAYRFRVGYSTETCFSEDSNGSYEEYNLIFYRMCTLSSS
partner: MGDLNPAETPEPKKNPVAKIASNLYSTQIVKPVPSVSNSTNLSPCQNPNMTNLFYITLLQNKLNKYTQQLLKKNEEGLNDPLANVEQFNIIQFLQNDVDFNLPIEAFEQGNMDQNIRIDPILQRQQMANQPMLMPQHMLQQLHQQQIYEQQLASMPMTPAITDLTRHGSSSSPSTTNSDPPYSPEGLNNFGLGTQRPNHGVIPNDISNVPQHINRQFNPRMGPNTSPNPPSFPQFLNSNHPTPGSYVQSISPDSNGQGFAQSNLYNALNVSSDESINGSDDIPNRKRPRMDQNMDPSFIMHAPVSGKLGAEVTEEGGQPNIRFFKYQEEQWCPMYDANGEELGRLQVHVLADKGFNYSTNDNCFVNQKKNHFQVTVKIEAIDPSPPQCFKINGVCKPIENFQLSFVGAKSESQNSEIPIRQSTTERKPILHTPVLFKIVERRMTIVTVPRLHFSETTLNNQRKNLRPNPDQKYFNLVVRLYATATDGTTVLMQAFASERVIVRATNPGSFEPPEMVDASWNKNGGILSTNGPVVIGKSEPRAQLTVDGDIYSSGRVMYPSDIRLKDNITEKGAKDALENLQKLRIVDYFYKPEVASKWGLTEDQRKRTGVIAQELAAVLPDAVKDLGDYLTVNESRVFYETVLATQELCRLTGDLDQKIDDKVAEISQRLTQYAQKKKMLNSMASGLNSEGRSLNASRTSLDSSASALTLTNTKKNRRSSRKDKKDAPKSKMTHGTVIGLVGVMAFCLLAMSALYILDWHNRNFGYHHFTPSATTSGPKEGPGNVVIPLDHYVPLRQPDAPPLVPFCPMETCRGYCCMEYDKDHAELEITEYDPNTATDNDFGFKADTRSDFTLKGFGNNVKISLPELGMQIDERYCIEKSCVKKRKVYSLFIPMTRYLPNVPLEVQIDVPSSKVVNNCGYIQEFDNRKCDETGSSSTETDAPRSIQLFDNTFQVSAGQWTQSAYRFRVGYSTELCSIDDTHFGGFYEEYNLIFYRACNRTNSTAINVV

The variants in the assay derive from B1. Conditions: with myrf2_caeel myrf-2, D9PTN5.
Take G274R: the “effect of a mutation on the interaction” value was “with no effect”.
